Targets include M2Δi3R (human) (UniProt P08172); β2AR365N (human) (UniProt P07550); hβ1AR (human) (UniProt P08588).
Holding throughout (assay): cell-based or functional assay

The values below come from patent publication US20150376261A1.

Chain of hβ1AR (human) (P08588 other isoform, or with tags, fused parts or gaps): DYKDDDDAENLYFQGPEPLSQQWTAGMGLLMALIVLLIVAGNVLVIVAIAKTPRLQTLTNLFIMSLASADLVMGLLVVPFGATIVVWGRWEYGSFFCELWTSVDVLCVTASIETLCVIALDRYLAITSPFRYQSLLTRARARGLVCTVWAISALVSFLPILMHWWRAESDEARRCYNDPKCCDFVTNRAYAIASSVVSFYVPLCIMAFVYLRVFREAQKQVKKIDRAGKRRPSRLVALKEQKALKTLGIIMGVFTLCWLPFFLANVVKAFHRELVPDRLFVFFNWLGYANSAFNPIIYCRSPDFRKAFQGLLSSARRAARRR
Chain of M2Δi3R (human) (P08172 other isoform, or with tags, fused parts or gaps mutant limits assumed): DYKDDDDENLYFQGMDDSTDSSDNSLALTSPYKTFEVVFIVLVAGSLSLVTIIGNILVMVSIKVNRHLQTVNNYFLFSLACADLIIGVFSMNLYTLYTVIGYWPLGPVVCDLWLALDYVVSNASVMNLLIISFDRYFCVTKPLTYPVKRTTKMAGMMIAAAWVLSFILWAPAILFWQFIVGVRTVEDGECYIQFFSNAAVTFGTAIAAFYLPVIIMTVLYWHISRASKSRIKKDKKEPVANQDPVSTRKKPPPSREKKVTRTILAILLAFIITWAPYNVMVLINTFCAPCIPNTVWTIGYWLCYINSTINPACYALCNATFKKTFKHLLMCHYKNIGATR

B1: Nb9-1 (VHH)
VHH: QVQLQESGGGLVQAGGSLRLSCAASGHTFSSARMYWVRQAPGKEREFVAAISRSGFTYSADSVKGRFTISRDIANNTVYLQMNSLQPEDTAIYTCYAAYLDEFYNDYTHYWGLGTQVTVSS
Consider B1, for which, in the assay with M2Δi3R (human), the IC50 ratio, carbachol: IC50 M2Δi3R / IC50high M2Δi3R-Nb9-1 fusion ([3H]-NMS competition, Sf9 membranes) is 67.2 and the IC50 ratio, oxotremorine M: IC50 M2Δi3R / IC50high M2Δi3R-Nb9-1 fusion worked out at 316.

B2: Nb71 (VHH)
VHH: QVQLQESGGGLVQPGGSLRLSCAASGFAFSSYELRWYRQAPGKQHELVAGITTGGNTYYADSVKGRFTISRDNAKNTVYLQMSNLRPEDTAVYACNANWDLLSDYWGQGTQVTVSS
Take B2: in the assay with β2AR365N (human), the IC50 ratio, ICI-118,551: β2AR365N-Nb69 mock fusion / β2AR365N-Nb71 fusion was found to be 0.01; the IC50 ratio, alprenolol: β2AR365N-Nb69 mock fusion / β2AR365N-Nb71 fusion came to 1.5; the IC50 ratio, carvedilol: β2AR365N-Nb69 mock fusion / β2AR365N-Nb71 fusion stood at 0.6; the IC50 ratio, epinephrine: β2AR365N-Nb69 mock fusion / β2AR365N-Nb71 fusion was 2030. Further, in the assay with β2AR365N (human), the IC50 ratio, isoproterenol: β2AR365N-Nb69 mock fusion / β2AR365N-Nb71 fusion was determined as 80 and the IC50 ratio, salbutamol: β2AR365N-Nb69 mock fusion / β2AR365N-Nb71 fusion was 454.

B3: Nb80 (VHH)
VHH: QVQLQESGGGLVQAGGSLRLSCAASGSIFSINTMGWYRQAPGKQRELVAAIHSGGSTNYANSVKGRFTISRDNAANTVYLQMNSLKPEDTAVYYCNVKDYGAVLYEYDYWGQGTQVTVSS
Take B3: in the assay with hβ1AR (human), the IC50 ratio, ICI-118,551: IC50 hβ1AR-Nb69 / IC50high hβ1AR-Nb80 fusion came to 0.077; the IC50 ratio, alprenolol: IC50 hβ1AR-Nb69 / IC50high hβ1AR-Nb80 fusion was 0.988; the IC50 ratio, epinephrine: IC50 hβ1AR-Nb69 / IC50high hβ1AR-Nb80 fusion ([3H]-DHA competition, Sf9 membranes) came out at 68.7. Besides, in the assay with β2AR365N (human), the IC50 ratio, ICI-118,551: β2AR365N-Nb69 mock fusion / β2AR365N-Nb80 fusion is 0.023; the IC50 ratio, alprenolol: β2AR365N-Nb69 mock fusion / β2AR365N-Nb80 fusion was found to be 4; the IC50 ratio, carvedilol: non-fused β2AR365N / β2AR365N-Nb80 fusion is 0.22; the IC50 ratio, carvedilol: β2AR365N-Nb69 mock fusion / β2AR365N-Nb80 fusion was 0.4. In addition, in the assay with β2AR365N (human), the IC50 ratio, epinephrine: non-fused β2AR365N / β2AR365N-Nb80 fusion came to 1380; the IC50 ratio, epinephrine: β2AR365N-Nb69 mock fusion / β2AR365N-Nb80 fusion ([3H]-DHA competition; Nb fused to the receptor) came to 2070; the IC50 ratio, isoproterenol: β2AR365N-Nb69 mock fusion / β2AR365N-Nb80 fusion was 670; the IC50 ratio, salbutamol: β2AR365N-Nb69 mock fusion / β2AR365N-Nb80 fusion turned out to be 373. Further, in the assay with β2AR365N (human), the apparent potency shift, compound 9: IC50 β2AR365N-Nb69 / IC50 β2AR365N-Nb80 fusion worked out at 71; the apparent potency shift, compound 10: IC50 β2AR365N-Nb69 / IC50 β2AR365N-Nb80 fusion is 94; the apparent potency shift, epinephrine: Nb80 fusion compared to Nb69 fusion (Example 19 experiment) was determined as 855; the apparent potency shift, fragment CC56213: IC50 β2AR365N-Nb69 / IC50 β2AR365N-Nb80 fusion came to 22. Further, in the assay with β2AR365N (human), the apparent potency shift, isoprotenerol: Nb80 fusion compared to Nb69 fusion (Example 19 experiment) stood at 155; the concentration of exogenous Nb80 at which the epinephrine IC50 of non-fused β2AR365N equals that of the fusion amounted to 5 µM; the effective intramolecular concentration of Nb80 in the β2AR365N-Nb80 fusion is greater than 500 nM; the epinephrine potency shift: IC50 of the mock fusion / IC50 of non-fused β2AR365N with 500 nM exogenous Nb80 was 87 fold. Besides, in the assay with β2AR365N (human), the epinephrine potency shift: IC50 of the mock fusion / IC50 of the β2AR365N-Nb80 fusion (Nb80 fused to the receptor) was 534 fold and the molar excess of exogenous Nb80 over β2AR needed to match the fusion was 12500 fold.
